Measurements taken from patent US20090227507A1, “Angiotensin (1-7) Dosage Forms and Uses Thereof” (UNIVERSITY OF SOUTHERN CALIFORNIA, priority 2008, published 2009).

Test: Hematology profile (CBC with differential, platelet count) in healthy men;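 for Platelet Count, Median Change from Baseline: Thousands of platelets per mm³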;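 for Platelet Count, Median: Thousands of platelets per mm³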
Type: in vivo, human
Experimental: Pharmacological Effect: The following evaluations (under efficacy and safety in the protocol) were performed: • Effects on the number of mature blood cells: • 1. CBC (with differential), platelet count, reticulocyte count. • Effects on early hematopoietic progenitor cells and mature lymphocyte subsets in the periphery: • 1. Flow cytometry to evaluate frequency of peripheral blood progenitor cells (eg, CD34^+) and lymphocyte subsets (eg, CD3, CD4, CD8) in peripheral blood. • 2. Collection of blood for later possible culture for progenitor cells (eg, colony forming units-granulocyte/macrophage [CFU-GM]) to evaluate potential effects on CD34^+ hematopoietic progenitor cells in peripheral blood. • 3.
The effect of USB003 on the number of mature blood cells was assessed by the complete blood count with differential, platelet and reticulocyte counts. The effects on early hematopoietic progenitor cells and mature lymphocyte subsets in the periphery were assessed by flow cytometry. In addition, blood was collected and processed to enable culture of progenitors at a later time.
Red blood cell (RBC) count, RBC indices, white blood cell count (WBC) with differential, reticulocyte count, platelet count, hemoglobin (Hb), hematocrit (Hct), plasma hemoglobin, peripheral flow cytometry, including CD34^+, flow cytometry for enumeration of CD3, CD4, and CD8 lymphocytes, and culture for progenitor cells in peripheral blood including colony-forming units-granulocyte/macrophage (CFU-GM).

[1] = 200 μg/kg, N = 9, baseline to Day 8
[2] = 200 μg/kg, N = 9, baseline to Day 20
[3] = 300 μg/kg, N = 8, baseline to Day 8

## Asp-Arg-Val-Tyr-Ile-His-Pro [USB003]
200 ug/kg and 300 ug/kg, at 20 days
  absolute neutrophil concentrations: apparent dose-related increase
200 μg/kg dose group, Day 8 and Day 20, compared with placebo
  shifts in eosinophils from high at baseline to normal: notable number of subjects
[1]
  Absolute Eosinophils shift H-N, number of subjects: 1
  Absolute Eosinophils shift L-N, number of subjects: — (“—” = 0)
  Absolute Eosinophils shift N-H, number of subjects: — (“—” = 0)
  Absolute Eosinophils shift N-L, number of subjects: — (“—” = 0)
  Absolute Reticulocytes shift H-N, number of subjects: — (“—” = 0)
  Absolute Reticulocytes shift L-N, number of subjects: — (“—” = 0)
  Absolute Reticulocytes shift N-H, number of subjects: — (“—” = 0)
  Absolute Reticulocytes shift N-L, number of subjects: — (“—” = 0)
  Eosinophils shift H-N, number of subjects: 3
  Eosinophils shift L-N, number of subjects: — (“—” = 0)
  Eosinophils shift N-H, number of subjects: — (“—” = 0)
  Eosinophils shift N-L, number of subjects: — (“—” = 0)
  Hematocrit shift H-N, number of subjects: — (“—” = 0)
  Hematocrit shift L-N, number of subjects: — (“—” = 0)
  Hematocrit shift N-H, number of subjects: — (“—” = 0)
  Hematocrit shift N-L, number of subjects: — (“—” = 0)
  Hemoglobin shift H-N, number of subjects: — (“—” = 0)
  Hemoglobin shift L-N, number of subjects: — (“—” = 0)
  Hemoglobin shift N-H, number of subjects: — (“—” = 0)
  Hemoglobin shift N-L, number of subjects: — (“—” = 0)
  Lymphocytes shift H-N, number of subjects: 1
  Lymphocytes shift L-N, number of subjects: 1
  Lymphocytes shift N-H, number of subjects: — (“—” = 0)
  Lymphocytes shift N-L, number of subjects: — (“—” = 0)
  Plasma Hemoglobin shift H-N, number of subjects: — (“—” = 0)
  Plasma Hemoglobin shift L-N, number of subjects: — (“—” = 0)
  Plasma Hemoglobin shift N-H, number of subjects: — (“—” = 0)
  Plasma Hemoglobin shift N-L, number of subjects: — (“—” = 0)
  Platelet Count shift H-N, number of subjects: — (“—” = 0)
  Platelet Count shift L-N, number of subjects: — (“—” = 0)
  Platelet Count shift N-H, number of subjects: 1
  Platelet Count shift N-L, number of subjects: — (“—” = 0)
  RBC shift H-N, number of subjects: — (“—” = 0)
  RBC shift L-N, number of subjects: — (“—” = 0)
  RBC shift N-H, number of subjects: — (“—” = 0)
  RBC shift N-L, number of subjects: — (“—” = 0)
  Segmented Neutrophils shift H-N, number of subjects: 1
  Segmented Neutrophils shift L-N, number of subjects: — (“—” = 0)
  Segmented Neutrophils shift N-H, number of subjects: — (“—” = 0)
  Segmented Neutrophils shift N-L, number of subjects: — (“—” = 0)
[2]
  Absolute Eosinophils shift H-N, number of subjects: — (“—” = 0)
  Absolute Eosinophils shift L-N, number of subjects: — (“—” = 0)
  Absolute Eosinophils shift N-H, number of subjects: 1
  Absolute Eosinophils shift N-L, number of subjects: — (“—” = 0)
  Absolute Neutrophils shift H-N, number of subjects: — (“—” = 0)
  Absolute Neutrophils shift L-N, number of subjects: — (“—” = 0)
  Absolute Neutrophils shift N-H, number of subjects: — (“—” = 0)
  Absolute Neutrophils shift N-L, number of subjects: — (“—” = 0)
  Absolute Reticulocytes shift H-N, number of subjects: — (“—” = 0)
  Absolute Reticulocytes shift L-N, number of subjects: — (“—” = 0)
  Absolute Reticulocytes shift N-H, number of subjects: 2
  Absolute Reticulocytes shift N-L, number of subjects: — (“—” = 0)
  Eosinophils shift H-N, number of subjects: 2
  Eosinophils shift L-N, number of subjects: — (“—” = 0)
  Eosinophils shift N-H, number of subjects: — (“—” = 0)
  Eosinophils shift N-L, number of subjects: — (“—” = 0)
  Hematocrit shift H-N, number of subjects: — (“—” = 0)
  Hematocrit shift L-N, number of subjects: — (“—” = 0)
  Hematocrit shift N-H, number of subjects: — (“—” = 0)
  Hematocrit shift N-L, number of subjects: — (“—” = 0)
  Hemoglobin shift H-N, number of subjects: — (“—” = 0)
  Hemoglobin shift L-N, number of subjects: 1
  Hemoglobin shift N-H, number of subjects: — (“—” = 0)
  Hemoglobin shift N-L, number of subjects: 1
  Lymphocytes shift H-N, number of subjects: — (“—” = 0)
  Lymphocytes shift L-N, number of subjects: 1
  Lymphocytes shift N-H, number of subjects: — (“—” = 0)
  Lymphocytes shift N-L, number of subjects: — (“—” = 0)
  Monocytes shift H-N, number of subjects: — (“—” = 0)
  Monocytes shift L-N, number of subjects: — (“—” = 0)
  Monocytes shift N-H, number of subjects: — (“—” = 0)
  Monocytes shift N-L, number of subjects: — (“—” = 0)
  Plasma Hemoglobin shift H-N, number of subjects: — (“—” = 0)
  Plasma Hemoglobin shift L-N, number of subjects: — (“—” = 0)
  Plasma Hemoglobin shift N-H, number of subjects: 2
  Plasma Hemoglobin shift N-L, number of subjects: — (“—” = 0)
  Platelet Count shift H-N, number of subjects: — (“—” = 0)
  Platelet Count shift L-N, number of subjects: — (“—” = 0)
  Platelet Count shift N-H, number of subjects: 1
  Platelet Count shift N-L, number of subjects: — (“—” = 0)
  RBC shift H-N, number of subjects: — (“—” = 0)
  RBC shift L-N, number of subjects: — (“—” = 0)
  RBC shift N-H, number of subjects: — (“—” = 0)
  RBC shift N-L, number of subjects: — (“—” = 0)
  RDW shift H-N, number of subjects: — (“—” = 0)
  RDW shift L-N, number of subjects: — (“—” = 0)
  RDW shift N-H, number of subjects: 1
  RDW shift N-L, number of subjects: — (“—” = 0)
  Segmented Neutrophils shift H-N, number of subjects: 1
  Segmented Neutrophils shift L-N, number of subjects: — (“—” = 0)
  Segmented Neutrophils shift N-H, number of subjects: — (“—” = 0)
  Segmented Neutrophils shift N-L, number of subjects: — (“—” = 0)
  WBC shift H-N, number of subjects: — (“—” = 0)
  WBC shift L-N, number of subjects: — (“—” = 0)
  WBC shift N-H, number of subjects: — (“—” = 0)
  WBC shift N-L, number of subjects: — (“—” = 0)
200 μg/kg, Baseline
  Absolute Neutrophils, Median: 3.00 thousands/mm^3
  Hematocrit, Median: 46.50%
  Hemoglobin, Median: 15.30 g/dL
  Lymphocytes, Median: 35.80%
  Platelet Count, Median: 263.0 thousands/mm^3
  WBC, Median: 5.60 thousands/mm^3
200 μg/kg, Day 8
  Absolute Neutrophils, Median: 3.60 thousands/mm^3
  Absolute Neutrophils, Median Change from Baseline: 0.45 thousands/mm^3
  Hematocrit, Median: 43.65%
  Hematocrit, Median Change from Baseline: −1.65%
  Hemoglobin, Median: 15.10 g/dL
  Hemoglobin, Median Change from Baseline: -0.20 g/dL
  Lymphocytes, Median: 32.40%
  Lymphocytes, Median Change from Baseline: −2.25%
  Platelet Count, Median: 242.0 thousands/mm^3
  Platelet Count, Median Change from Baseline: 1.0 thousands/mm^3
  WBC, Median: 6.65 thousands/mm^3
  WBC, Median Change from Baseline: 0.35 thousands/mm^3
200 μg/kg, Day 20
  Absolute Neutrophils, Median: 3.80 thousands/mm^3
  Absolute Neutrophils, Median Change from Baseline: 0.20 thousands/mm^3
  Hematocrit, Median: 43.80%
  Hematocrit, Median Change from Baseline: −1.50%
  Hemoglobin, Median: 14.50 g/dL
  Hemoglobin, Median Change from Baseline: -0.70 g/dL
  Lymphocytes, Median: 31.50%
  Lymphocytes, Median Change from Baseline: −1.80%
  Platelet Count, Median: 250.0 thousands/mm^3
  Platelet Count, Median Change from Baseline: −5 thousands/mm^3
  WBC, Median: 6.20 thousands/mm^3
  WBC, Median Change from Baseline: 0.40 thousands/mm^3
300 ug/kg group, at 20 days
  WBC concentration: relative increase
[3]
  Absolute Eosinophils shift H-N, number of subjects: — (“—” = 0)
  Absolute Eosinophils shift L-N, number of subjects: — (“—” = 0)
  Absolute Eosinophils shift N-H, number of subjects: — (“—” = 0)
  Absolute Eosinophils shift N-L, number of subjects: — (“—” = 0)
  Absolute Reticulocytes shift H-N, number of subjects: — (“—” = 0)
  Absolute Reticulocytes shift L-N, number of subjects: — (“—” = 0)
  Absolute Reticulocytes shift N-H, number of subjects: 1
  Absolute Reticulocytes shift N-L, number of subjects: — (“—” = 0)
  Eosinophils shift H-N, number of subjects: 1
